These results are taken from patent US20240383959A1, “CELL-FREE METHODS AND COMPOSITIONS COMPRISING TAGLESS THERAPEUTIC HORMONES” (Northwestern University, priority 2021, published 2024).

One assay relates to Escherichia coli MG1655. As to the kind of experiment: Plate-based growth inhibition assay. It counts as cell-based. Particulars: overnight incubation, 384 well plate, two replicates; peptide purified from CFPS. The method, then:
Antimicrobial peptide activity was tested with a plate-based growth inhibition study. A 5 ml culture of Escherichia coli MG1655 was grown overnight on Luria Broth (LB) from a glycerol stock. On the day of the assay, the overnight culture was diluted to an OD of 0.08 in LB and then grown to mid log phase (OD ˜0.5). The mid log phase cells were diluted to […] (assuming 1 OD=8×10^8 cells/ml) into LB with 0.005% Antifoam 204 (Sigma A6426) and 1 mg/ml BSA (Sigma-Aldrich A2153-100G). 5 μl of these cells were added to 10 μl of purified antimicrobial peptide in a UV-sterilized 384 well, clear bottom plate (Greiner Bio-One 781096). Positive controls included 10 μl of the wash buffer the hormones were dissolved in and 10 μl of a no DNA control where no DNA template was added to the CFPS reactions, but the sample was treated exactly like the other antimicrobial peptide samples. Negative controls included a final kanamycin concentration of 50 μg/ml and adding 10 μl of the LB with 0.005% Antifoam 204 and 1 mg/ml BSA without E. coli cells. The plate was sealed with a microseal B adhesive (Bio-Rad MSB1001) and incubated in a plate reader with continuous shaking for 18 hr at 37° C. and absorbance measurements at 600 nm every 15 min.

Assay [1] deals with T1, parathyroid hormone receptor (Homo sapiens, UniProt Q03431).
T1 construct: purchased R&D systems 5709-PR-50
T1 sequence (Q03431 27-186 limits assumed): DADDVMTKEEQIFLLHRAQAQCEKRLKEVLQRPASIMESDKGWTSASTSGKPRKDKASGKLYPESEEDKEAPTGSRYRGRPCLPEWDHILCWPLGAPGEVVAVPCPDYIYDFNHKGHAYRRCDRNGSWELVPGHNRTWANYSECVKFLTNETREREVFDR
As to the kind of experiment: Biolayer interferometry (BLI) of PTH binding to its receptor. Particulars: undiluted CFPS PTH or 67 μg/ml commercial PTH; with and without receptor on tip. The text has this:
In fact, the entire sequences except for the two N-terminal and C-terminal amino acids were confirmed for both GLP-1 mutant and GLP-1 in these experiments. The peptide hormones are cleaved precisely at the C-terminus of SUMO to give tagless hormones as expected. […] There was low signal relative to GH, however, the binding signal is still more than 3 standard deviations above the background noise. Unfortunately, this binding was unable to be confirmed with BLI, likely because the hormone is too small (3.5 kDa) to generate enough of a wavelength shift to be detected by the instrument (FIG. 9f). […] Full-length parathyroid hormone was detected in the deconvoluted LC-MS spectra with an observed mass of 9424.66 Da, which matches the theoretical mass of 9424.73 Da with an error of 7.4 ppm (FIG. 10a). PTH was also detected by two orthogonal antibodies in a commercial sandwich ELISA assay (Biomatik EKF58372). The concentration was determined to be 24±11 μg/ml with 4 dilutions of a single sample (FIG. 10a). This value is approximately 80% of that detected by BCA and densitometry. […] Black lines represent a commercially purchased positive control PTH (OriGene SA6052) where there is no receptor immobilized on the lightly shaded line and receptor immobilized with the dark line. […]

Assay [2] concerns the target T2, extracellular domain of PTH receptor (Homo sapiens, UniProt Q03431).
T2 construct: purchased Abcam ab182670
T2 sequence (Q03431 27-186 limits assumed): T1 sequence (Q03431 27-186 limits assumed)
As to the kind of experiment: AlphaLISA cross-titration of PTH and PTH receptor. The assay is classed as binding. Particulars: sFLAG-tagged PTH, anti-FLAG donor beads; His-tagged PTH receptor, nickel chelate acceptor beads.

On to Melittin, for which, in the assay on Escherichia coli MG1655, the “Growth of E. coli MG1655” value is given as “inhibiting growth of the bacteria”.

Consider Parathyroid Hormone [PTH], for which the “PTH binding to extracellular domain of its receptor (BLI)” value in assay [1] is “unable to detect PTH binding”. Further, in assay [2], the “PTH interaction with extracellular domain of its receptor (AlphaLISA)” value is “very low signal that has a typical binding pattern”.

Regarding “positive control PTH: commercially purchased positive control PTH (OriGene SA6052) [reference compound]”, the “PTH binding to extracellular domain of its receptor (BLI)” value in assay [1] is listed as “high background binding”.
